Results: the RNAGym collection of RNA variant scans (doi:10.1073/pnas.2313332121)
Fewer inactive variants are shown than the library holds.

B1: TPR 5TU (parent)
chain: GGAUCUUCUCGAUCUAACAAAAAAGACAAAUCUGCCACAAAGCUUGAGAGCAUCUUCGGAUGCAGAGGCGGCAGCCUUCGGUGGCGCGAUAGCGCCAACGUUCUCAACUAUGACACGCAAAACGCGUGCUCCGUUGAAUGGAGUUUAUCAUG

Variants of: B1
Assay: polymerase ribozyme fitness, log enrichment relative to wild type (log ratio); higher = more active; in vitro selection for triplet polymerase activity
In short: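 Fitness compares each genotype's enrichment to that of the wild type on a logarithmic scale, averaging replicates with inverse-variance weights. The logarithm is base 2. Enrichment came from Illumina sequencing of input and output libraries after one triplicate round of in vitro selection, which included frozen incubation at −7 °C, of PCR-built, transcribed mutant libraries of each subunit of a heterodimeric triplet polymerase ribozyme. Only genotypes with ≥10 input reads and ≥1 read per output were kept.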

| Variant | polymerase ribozyme fitness (log ratio) |
| --- | --- |
| G84A A98U | -0.469 |
| G83U C118A | -1.04 |
| U82G A91U C114A A119U A121C G133C | ≤ -4.2 |
| G83C C85U C87U | -2.71 |
| U78G C87G G92U A97C | ≤ -4.2 |
| G80A G94C C125A G143A | ≤ -4.2 |
| C85A G141A U146G | -1.68 |
| U82G C85A A89G G133A A142C | ≤ -4.2 |
| C79G C96U | -3.8 |
| G81A G92C C99U G124C G133U | ≤ -4.2 |
| G83A C118U G126A | -2.89 |
| G81U C85G | -1.76 |
| G81A C95A A147C | 0.16 |
| G83C C99G | -3.88 |
| U78A C103G U134A | ≤ -4.2 |
| G84U C116G | -1.58 |
| G84U C116U | -2.7 |
| U77C G92C U139C A150U | ≤ -4.2 |
| C76G U144A | ≤ -4.2 |
| G84A A120U C123A G126U | 0.597 |
| G84A C125A C132A G140U | -1.25 |
| G81U G84C C118G | -3.16 |
| C79A C93U A119G G133C | ≤ -4.2 |
| G83A A119C A120U C149U | -1.37 |

| Variant | polymerase ribozyme fitness (log ratio) |
| --- | --- |
| U77A A113U | ≤ -4.2 |
| C76U G88A A91C | ≤ -4.2 |
| U77G C87U G88A G140C A142G | ≤ -4.2 |
| G80C A115U | ≤ -4.2 |
| U82G C93U | -1.51 |
| G83U U135A | -1.05 |
| C76U C103A G141C | -4.16 |
| C76U A119C | -0.584 |
| C76U A119U | -0.561 |
| G81U C96U A107U U145C | -3.1 |
| C79A G141C | -3.95 |
| G81A A91U U101G C103A | ≤ -4.2 |
| C85A C116U | -1.08 |
| G83A G92U A119G A122C C149G | -4.14 |
| G83A C132U | -0.931 |
| G81C G141A | -1.94 |
| C76U G94U A115C C125U A147U | ≤ -4.2 |
| G83U G94A U127C | -3.92 |
| G81A C118G | -1.67 |
| C76U U104G A106U G128U U151G | ≤ -4.2 |
| G81C A137U U139G U144A | -3.35 |
| U77C C114U | ≤ -4.2 |
| C79G C85A C114U | ≤ -4.2 |
| G83A G94A | -1.17 |

| Variant | polymerase ribozyme fitness (log ratio) |
| --- | --- |
| G84C C118A C125U G136U | -4.09 |
| G83A A121G U145G U148G | ≤ -4.2 |
| C85A A115G | -2.38 |
| G84U C87G | -3.88 |
| G84A C93G | -3.77 |
| G83U C114G A115U A119U U134A | ≤ -4.2 |
| U77A C96G G141U | ≤ -4.2 |
| G81C C93G A113C C116U G117A C129A | ≤ -4.2 |
| G83C G117U C131U | -0.254 |
| G80C G88C C103A A122U A138G | ≤ -4.2 |
| C76G C85U U139C | ≤ -4.2 |
| G80C C85A G94C C132U G141U U148C | ≤ -4.2 |
| G83A C93U A121U | -2.08 |
| G84A G112C | -2.71 |
| G83A G140C | -3.99 |
| G84A G126U | -0.0664 |
| G84A G126A | 0.571 |
| C76G C93A C96A G136C | ≤ -4.2 |
| G83A C87U A106C C125G G152A | -3.25 |
| G80C G128C | -3.87 |
| G84C U102A A147U | -3.01 |
| U82C C93G | -3.99 |
| U77C G143U | -4.09 |
| C76U C85G A121U U148C | -2.83 |

| Variant | polymerase ribozyme fitness (log ratio) |
| --- | --- |
| G84U U134A U144C A150U | ≤ -4.2 |
| G84A U109G C114G U135G | ≤ -4.2 |
| C76G G83U U90A G128U U135G | ≤ -4.2 |
| G84A C87U C95G A142C | -2.26 |
| C85A G86U | -3.2 |
| G84A A147G | -2.67 |
| G80U G86U G100A | ≤ -4.2 |
| C79G C87U U144G | -4.04 |
| G81A A147U | 0.732 |
| G83A C125U | -1.29 |
| G84A A121G C123U C131U | 0.94 |
| C76G U77C G133U | ≤ -4.2 |
| G80A G83C | -3.01 |
| C76U U102G | -2.89 |
| C79A U144A A147C | ≤ -4.2 |
| G80A C93G A97G A115C | -3.64 |
| U82C A89C C96U U101G A115C | -1.01 |
| G84A A89G A98G C114U | -2.55 |
| C76U G83A | -0.0654 |
| G80C C87G C103G G143C | ≤ -4.2 |
| G84A U109A A115C C123A | -1.8 |
| U82C C131G | -2.45 |
| G81A C95A C103A | -2.93 |
| U82A C95U | -0.587 |

| Variant | polymerase ribozyme fitness (log ratio) |
| --- | --- |
| U82A C93U A110G | -4.09 |
| G80U C93G | -2.97 |
| G84A C103U | -2.51 |
| G84A C103G | -2.32 |
| G80C G81C C96A U134A | ≤ -4.2 |
| G80A C85U C118A | -0.52 |
| C85A C116U A122C | -4.17 |
| C79G A122U | -3.58 |
| U77A G84A C85U | ≤ -4.2 |
| C85A G133C | -3.5 |
| G83A A115G G136A U144C | -3.84 |
| C76U C85G C125U U139G | ≤ -4.2 |
| G84A U127A | -3.74 |
| G84A U102A C132U | -2.3 |
| G83A C129G | -3.81 |
| G81C C85U A97G U109G | -0.959 |
| G83U A91U A120U A138U | ≤ -4.2 |
| C85A A97U | -2.65 |
| G83U C103U C116A G117A U148A | ≤ -4.2 |
| G83C C95U G136A C149U | -2.18 |
| C79G G124A | -3.82 |
| G84A A142U | -0.702 |
| C79U G80C C85U C93U | ≤ -4.2 |
| G83C A89C G126A | -0.834 |

| Variant | polymerase ribozyme fitness (log ratio) |
| --- | --- |
| G84A G141A | -0.675 |
| G81U A98G | -0.549 |
| G83A G88C A91G C95U A137G | ≤ -4.2 |
| C85A C103A | -4.12 |
| C85A C103G | -3.36 |
| G81C G117U | 0.139 |
| G83A A89G C116U | -1.69 |
| G80C C87A A89C A97G U102C A137G A138G U151A | ≤ -4.2 |
| U82C U101A | 0.112 |
| G84A U102C C105A A107G | ≤ -4.2 |
| U78C G83C G126A | -0.883 |
| G81A A120G U148C | -2.99 |
| U82G A98G | 0.302 |
| G80A U82G C123A G152U | -4.06 |
| C79G | -3.75 |
| C79A | -4.12 |
| C79U | -1.47 |
| G84A C108U | -2.74 |
| G83U C85A | -3.55 |
| G83C G143U | -2.8 |
| G84A U101G A122U U146C | -0.376 |
| U82A A107C | -3.72 |
| G84A C116A | 0.83 |
| C85A G117U | -0.587 |

| Variant | polymerase ribozyme fitness (log ratio) |
| --- | --- |
| G80A C85G C116G | -2.05 |
| G83A G141A | 0.227 |
| G84U A91G | -2.81 |
| G81A A97G A115G | -0.993 |
| G81C C85A A142G | -1.69 |
| U77A C132U | ≤ -4.2 |
| G83A G92U C96A A147C | -3.05 |
| U82C A89U C96G G100A A106U C114U A137C | ≤ -4.2 |
| G81C A89C A98U A107U U144C | ≤ -4.2 |
| C76U A89C C118G | -1.8 |
| G83C U101A | -1.07 |
| G83U A97U C105U G117U G141U | ≤ -4.2 |
| U77C U111A C131A | ≤ -4.2 |
| C79G C87G C114G | ≤ -4.2 |
| U82C U90G | ≤ -4.2 |
| U82A A106U | -1.16 |
| U82A A106C | -0.884 |
| G84A G152A | -2.93 |
| G80C A113G U134A | ≤ -4.2 |
| U82A G83A A98G U127C | -3.36 |
| G83A C93U A107G | ≤ -4.2 |
| G80U G94A C96A U101A C149A | ≤ -4.2 |
| C85A A106C G140C | ≤ -4.2 |
